According to patent publication US20140356358A1 (Amgen, published 2014):
Positions count from the first letter of the chain named. Names may count otherwise.

B1: L6A isolate with insertion SEQ ID NO: 400 (other)
chain: EPKSCDKTHTCPPCPAPELLGGPSVFLFPPKPKDTLMISRTPEVTCVVVDVSHEDPEVKFNWYVDGVEVHNAKTKPREEQYNSTYRVVSVLTVLHQDWLNGKEYKCKVSNKALPAPIEKTISKAKGQPREPQVYTLPPSRDELGGCRAGYGDASCGGTKNQVSLTCLVKGFYPSDIAVEWESNGQPENNYKTTPPVLDSDGSFFLYSKLTVDKSRWQQGNVFSCSVMHEALHNHYTQKSLSLSPGK
B2: L6A isolate with insertion SEQ ID NO: 458 (other)
chain: B1 chain with R147N, A148P, G149V, Y150S, G151T, D152G, S154Y
B3: L6A isolate with insertion SEQ ID NO: 467 (other)
chain: B1 chain with R147E, A148R, G149H, Y150F, G151P, D152A, A153L, S154F
B4: L6A isolate with insertion SEQ ID NO: 466 (other)
chain: B1 chain with R147D, A148R, G149F, Y150Q, G151N, D152V, A153N, S154V
B5: L6A isolate with insertion SEQ ID NO: 465 (other)
chain: B1 chain with R147F, A148T, G149N, G151A, D152S, A153E, S154K
B6: L6A isolate with insertion SEQ ID NO: 474 (other)
chain: B1 chain with R147A, A148K, G149D, Y150Q, G151H, D152T, A153G
B7: L5 isolate with insertion SEQ ID NO: 439 (other)
chain: EPKSCDKTHTCPPCPAPELLGGPSVFLFPPKPKDTLMISRTPEVTCVVVDVSHEDPEVKFNWYVDGVEVHNAKTKPREEQYNSTYRVVSVLTVLHQDWLNGKEYKCKVSNKALPAPIEKTISKAKGQPREPQVYTLPPSRDELTKNQVSLTCLVKGFYPSDIAVEWESNGGCHHKQDQCGGGQPENNYKTTPPVLDSDGSFFLYSKLTVDKSRWQQGNVFSCSVMHEALHNHYTQKSLSLSPGK
B8: L5 isolate with insertion SEQ ID NO: 481 (other)
chain: B7 chain with H173E, H174Q, K175Q, Q176F, D177V, Q178T
B9: variant Fc-fragment Fc-5-66 (other)
chain: B7 chain with H173E, H174R, K175F, Q176H, D177H, Q178A
notes: soluble elsewhere
B10: L5 isolate with insertion SEQ ID NO: 449 (other)
chain: B7 chain with H173L, H174Q, K175N, Q176L, D177Y, Q178V
B11: L5 isolate with insertion SEQ ID NO: 495 (other)
chain: B7 chain with H173L, H174M, K175S, Q178L
B12: L5 isolate with insertion SEQ ID NO: 477 (other)
chain: B7 chain with H173Q, H174Q, K175I, Q176K, D177E, Q178W
B13: L5 isolate with insertion SEQ ID NO: 484 (other)
chain: B7 chain with H173Y, H174A, K175S, Q176P, D177H, Q178E
B14: L5 isolate with insertion SEQ ID NO: 494 (other)
chain: B7 chain with H173C, H174P, K175V, Q176Y, D177Q, Q178H
B15: L5 isolate with insertion SEQ ID NO: 486 (other)
chain: B7 chain with H173D, H174T, K175I, Q176G, D177W, Q178F
B16: L5 isolate with insertion SEQ ID NO: 459 (other)
chain: B7 chain with H173P, H174G, K175H, Q176E, D177F, Q178R
B17: L5 isolate with insertion SEQ ID NO: 461 (other)
chain: B7 chain with H173K, H174W, K175S, Q176M, D177T, Q178K
B18: L5 isolate with insertion SEQ ID NO: 480 (other)
chain: B7 chain with H173A, H174G, K175P, Q176Y, D177W, Q178A
B19: L5 isolate with insertion SEQ ID NO: 451 (other)
chain: B7 chain with H173N, H174L, K175G, Q176H, D177M, Q178P
B20: L5 isolate with insertion SEQ ID NO: 452 (other)
chain: B7 chain with H173W, H174M, K175W, Q176A, D177E, Q178E
B21: L5 isolate with insertion SEQ ID NO: 485 (other)
chain: B7 chain with H173M, H174P, K175P, D177W, Q178M
B22: L5 isolate with insertion SEQ ID NO: 493 (other)
chain: B7 chain with H173L, H174L, K175P, Q176N, D177M, Q178F
B23: L5 isolate with insertion SEQ ID NO: 444 (other)
chain: B7 chain with H174A, K175P, D177W, Q178E
B24: L5 isolate with insertion SEQ ID NO: 475 (other)
chain: B7 chain with H173L, H174G, K175L, Q176R, D177Q, Q178E
B25: L5 isolate with insertion SEQ ID NO: 482 (other)
chain: B7 chain with H173M, H174G, K175W, Q176W, D177H, Q178L
B26: L5 isolate with insertion SEQ ID NO: 462 (other)
chain: B7 chain with H173D, H174W, K175H, Q176R, D177M, Q178K
B27: L5 isolate with insertion SEQ ID NO: 496 (other)
chain: B7 chain with H173G, H174G, K175P, Q176Y, D177V, Q178F
B28: L5 isolate with insertion SEQ ID NO: 450 (other)
chain: B7 chain with H173Q, H174T, K175S, Q176M, D177K, Q178N
B29: L5 isolate with insertion SEQ ID NO: 488 (other)
chain: B7 chain with H173G, H174P, K175Y, Q176K, D177T, Q178E
B30: L5 isolate with insertion SEQ ID NO: 483 (other)
chain: B7 chain with H173P, H174Q, K175H, Q176G, D177E, Q178M
B31: L5 isolate with insertion SEQ ID NO: 456 (other)
chain: B7 chain with H173Y, H174P, K175Q, Q176K, D177E, Q178I
B32: L5 isolate with insertion SEQ ID NO: 464 (other)
chain: B7 chain with H173M, H174M, K175W, Q176K, D177V, Q178N
B33: L5 isolate with insertion SEQ ID NO: 447 (other)
chain: B7 chain with H173M, H174F, K175E, Q176T, D177K, Q178W
B34: L5 isolate with insertion SEQ ID NO: 441 (other)
chain: B7 chain with H173E, H174A, K175T, Q176M, D177T, Q178W
B35: L5 isolate with insertion SEQ ID NO: 489 (other)
chain: B7 chain with H173Q, H174P, K175Q, Q176A, D177S, Q178W
B36: L5 isolate with insertion SEQ ID NO: 478 (other)
chain: B7 chain with H173D, H174L, K175P, Q176N, D177E, Q178M
B37: L5 isolate with insertion SEQ ID NO: 491 (other)
chain: B7 chain with C172S, H173Q, H174R, K175A, Q176P, D177A, Q178S
B38: L5 isolate with insertion SEQ ID NO: 453 (other)
chain: B7 chain with H173V, K175N, Q176D, D177K, Q178L
B39: L5 isolate with insertion SEQ ID NO: 443 (other)
chain: B7 chain with H173S, H174R, K175V, Q176F, D177K, Q178Y
B40: L5 isolate with insertion SEQ ID NO: 446 (other)
chain: B7 chain with H173M, K175N, Q176E, D177E, Q178F
B41: L5 isolate with insertion SEQ ID NO: 470 (other)
chain: B7 chain with H173E, H174A, K175S, Q176G, D177Q, Q178I
B42: L5 isolate with insertion SEQ ID NO: 479 (other)
chain: B7 chain with H173M, H174F, K175S, Q176H, D177P, Q178H
B43: L5 isolate with insertion SEQ ID NO: 487 (other)
chain: B7 chain with H173G, H174I, K175F, Q176E, D177S, Q178W
B44: L5 isolate with insertion SEQ ID NO: 445 (other)
chain: B7 chain with H173P, H174L, K175V, Q176R, D177A, Q178D
B45: L5 isolate with insertion SEQ ID NO: 492 (other)
chain: B7 chain with H173M, H174M, K175R, Q176E, D177Q, Q178G
B46: L5 isolate with insertion SEQ ID NO: 463 (other)
chain: B7 chain with H173M, K175S, Q176P, D177H, Q178A

molecular target: T1, human neonatal Fc receptor (hFcRn) (human, UniProt P55899 24-290; P61769 21-119); assay: phage ELISA pH 7.4
T1 construct: Biotinylated in the ELISA, Octet and yeast assays; also called human FcRn; huFcRn
Procedure: (§1) Approximately 100 μL of biotinylated human FcRn at 2 μg/mL was added to the wells of MAXISORP™ plates coated with 10 μg/mL streptavidin. After washing with PBS plus 0.05% Tween 20 (PBST) five times, phage from the overnight cultures in MES buffer at pH 6.0 or pH 7.4 were added to the plates and incubated at room temperature for 1 hr. A horseradish peroxidase (HRP)-conjugated anti-M13 antibody was used to detect the binding phage, and the plates were scored by a microtiter plate reader using a wavelength in the visible range.
(§2) Binding was assessed by a quantitative enzyme-linked immunoadsorbent assay (ELISA). The ELISA scores reflect binding affinity, with higher scores meaning higher affinity. Typically, scores higher than about 3˜5 indicate binding above background. For library L5, the insertions are between the N169 and G170 according to the numbering in FIG. 2. For libraries 6A and 6B, the insertions are between L143 and T144 according to the numbering in FIG. 2.
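Further: higher score means stronger binding and above about 3 to 5 exceeds background.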

T1 sequence (P55899 24-290 limits assumed, chain 1 of 2): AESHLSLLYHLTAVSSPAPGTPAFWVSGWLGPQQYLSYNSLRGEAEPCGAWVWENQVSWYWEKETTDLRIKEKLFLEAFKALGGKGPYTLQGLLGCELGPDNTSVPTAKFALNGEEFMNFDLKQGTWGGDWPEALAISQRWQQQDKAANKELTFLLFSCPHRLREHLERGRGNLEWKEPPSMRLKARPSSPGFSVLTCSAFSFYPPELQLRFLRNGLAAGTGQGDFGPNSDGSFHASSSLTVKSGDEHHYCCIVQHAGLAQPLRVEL
T1 sequence (P61769 21-119 limits assumed, chain 2 of 2): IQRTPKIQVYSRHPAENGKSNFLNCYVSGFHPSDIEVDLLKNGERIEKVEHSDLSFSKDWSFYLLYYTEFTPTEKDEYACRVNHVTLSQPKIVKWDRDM

Point of comparison: B7, ELISA score 0.6. Against it:
- B1 — higher, 0.7
- B2 — lower, 0.2
- B3 — the same, 0.6
- B4 — lower, 0.2
- B5 — lower, 0.3
- B6 — lower, 0.2
- B8 — higher, 0.8
- B9 — lower, 0.5
- B10 — lower, 0.4
- B11 — higher, 1
- B12 — higher, 1.6
- B13 — higher, 1
- B14 — lower, 0.3
- B15 — higher, 1.4
- B16 — higher, 1.8
- B17 — higher, 0.9
- B18 — higher, 0.7
- B19 — lower, 0.4
- B20 — higher, 1
- B21 — higher, 2.1
- B22 — higher, 1
- B23 — lower, 0.3
- B24 — higher, 1.6
- B25 — higher, 1.2
- B26 — higher, 1.4
- B27 — higher, 1.4
- B28 — lower, 0.2
- B29 — higher, 0.9
- B30 — lower, 0.5
- B31 — the same, 0.6
- B32 — higher, 0.9
- B33 — higher, 1.2
- B34 — the same, 0.6
- B35 — higher, 0.7
- B36 — higher, 1
- B37 — higher, 1.2
- B38 — lower, 0.4
- B39 — higher, 0.7
- B40 — lower, 0.4
- B41 — higher, 1.6
- B42 — higher, 0.7
- B43 — higher, 0.7
- B44 — lower, 0.4
- B45 — higher, 1.5
- B46 — higher, 3.6

molecular target: T1, human neonatal Fc receptor (hFcRn); assay: phage ELISA pH 6
Procedure: as §1, §2

Point of comparison: B27, ELISA score 21.3. Against it:
- B1 — higher, 79.5
- B2 — higher, 48.5
- B3 — higher, 43.8
- B4 — higher, 44
- B5 — higher, 45.2
- B6 — higher, 41.2
- B7 — higher, 54.9
- B8 — higher, 31.1
- B9 — higher, 51.2
- B10 — higher, 51.6
- B11 — higher, 21.5
- B12 — higher, 38.7
- B13 — higher, 27.7
- B14 — higher, 21.7
- B15 — higher, 26.9
- B16 — higher, 48.2
- B17 — higher, 47.2
- B18 — higher, 33.7
- B19 — higher, 51.1
- B20 — higher, 50.5
- B21 — higher, 27.5
- B22 — higher, 22
- B23 — higher, 53.2
- B24 — higher, 41.1
- B25 — higher, 29.5
- B26 — higher, 47
- B28 — higher, 51.3
- B29 — higher, 26.1
- B30 — higher, 28.4
- B31 — higher, 49.8
- B32 — higher, 46.2
- B33 — higher, 52.4
- B34 — higher, 54.7
- B35 — higher, 25.2
- B36 — higher, 36.1
- B37 — higher, 24.9
- B38 — higher, 50.3
- B39 — higher, 54.2
- B40 — higher, 53.2
- B41 — higher, 42.4
- B42 — higher, 35.8
- B43 — higher, 26.3
- B44 — higher, 53.2
- B45 — higher, 23.9
- B46 — higher, 46.8
